Assay results from US20170008975A1, “Anti-Tissue Inhibitor of Metalloproteinase-4 (Timp-4) Antibodies and Methods of Use Thereof” (LANKENAU INSTITUTE FOR MEDICAL RESEARCH, priority 2014, published 2017).
Entries after “also recorded” stand apart in the source; their conditions may differ.

T1: CD63 (Homo sapiens, UniProt P08962)
T1 construct: endogenous in cells; host or cells: MDA-MB-468
T1 sequence (P08962 1-238): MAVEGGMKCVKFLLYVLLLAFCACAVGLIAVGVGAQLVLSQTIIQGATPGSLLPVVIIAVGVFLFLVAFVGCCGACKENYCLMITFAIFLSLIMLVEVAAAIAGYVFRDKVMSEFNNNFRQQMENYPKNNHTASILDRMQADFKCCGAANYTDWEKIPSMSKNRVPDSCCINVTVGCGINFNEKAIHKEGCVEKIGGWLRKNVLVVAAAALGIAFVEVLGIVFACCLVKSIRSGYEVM

B1: TIMP-4: tissue inhibitor of metalloproteinase-4 protein (R&D Systems, Inc), added to media or given in slow-release pellets (protein, UniProt Q99727 30-224, looked up)
Metalloproteinase inhibitor 4: CSCAPAHPQQHICHSALVIRAKISSEKVVPASADPADTEKMLRYEIKQIKMFKGFEKVKDVQYIYTPFDSSLCGVKLEANSQKQYLLTGQVLSDGKVFIHLCNYIEPWEDLSLVQRESLNHHYHLNCGCQITTCYTVPCTISAPNECLWTDWLLERKLYGYQAQHYVCMKHVDGTCSWYRGHLPLRKEFVDIVQP

Experiments:
AKT = experiment: Western blotting of AKT activation in breast cancer cell cultures; type: cell-based
Description: TIMP-4 appears to induce PI3K/AKT signaling, a critically important cancer cell pathway (Cantley, L. C. (2002) Science, 296:1655-7; Lopez-Knowles et al. (2010) Int. J. Cancer, 126:1121-31), through binding to the tetraspanin CD63 (Jung et al. (2006) EMBO J., 25:3934-42) (FIG. 3). […] Prior to clinical use of Her-2 targeting therapy (Herceptin®), breast cancers that were positive for Her-2 were, like TNBCs, associated with fast growth rate, early recurrence and distant disease resulting in a prognosis of poor survival (Hsieh et al. (2007) Br. J. Cancer, 97:453-7).

[1] = tested on: triple-negative human breast cancer cell-line MDA-MB-468; experiment: Growth of MDA-MB-468 in culture with or without 2 nM TIMP-4; type: cell-based; settings: normal media supplemented with 2 nM TIMP-4
Protocol: (§1) MDA-MB-468 cell were compared to the CD63 negative SK-Br-3 cells using a modified Boyden chamber to assess invasion in absence (Ctrl) and presence of 2nM TIMP-4 (N=6). […] Clonogenic growth assay (Ayene et al. (2000) Int. J. Radiat. Biol., 76:1523-1531) was used to determine the survival advantage for MDA-MB-468 cells under elevtedTIMP-4 conditions after irradiation (N=3). […] This effect can be prevented by pre-treating the cells with LY294002. […] Further, cells cultured in normal medium began to detach and die as they reached contact inhibition (day 10), whereas cells in TIMP-4-supplemented media continued to survive and grow. Growth augmented by TIMP-4 could be blocked by the addition of the TIMP-4 mAb of the instant invention. Briefly, TIMP-4 mAbs were obtained by delivering a purified glutathione-S-transferase (GST) chimeric protein comprising the human full-length 224 amino acid TIMP-4 (GenBank Accession No. NM_003256.2).

MDA-MB-468 cells [2] = experiment: MDA-MB-468 orthotopic xenograft in mammary fat pad of nude mice with TIMP-4 or placebo slow-release pellets; type: in vivo; settings: TIMP-4 slow-release pellets implanted two weeks before cells
Protocol: FIGS. 7A and B show the effect of modulating TIMP-4 levels in a pilot animal study. Slow-release pellets were used to elevate the TIMP-4 (FIG. 7A) levels in the mammary fatpad (mfp) prior to implanting human TNBC cells. Placebo pellets (FIG. 7B) were used for control conditions. Once tumors were established, twice weekly doses of the anti-TIMP-4 or iso-type control mAb were administered during a two-week period (i.e. in total four treatments). Animals were followed for an additional two weeks post-treatment.
Inguinal mammary fat pads in nude mice were implanted with slow-release pellets (Innovative Research of America, Fla.) containing TIMP-4 to elevate its levels. Two weeks later, MDA-MB-468 cells were mixed with Matrigel™ (LDEV and phenol red free, BD Biosciences) and injected at the same site as an orthotopic xenograft. […] Tumor-bearing mice from both the groups shown were then randomly divided in half and treated by i.p. injection with 1 mg IgG of TIMP-4 mAb (clone 18:4-7) or a matched isotype control IgG2bk (BioXCell, N.H.), in sterile azide-free solution, administered twice weekly for 2 weeks. […] The antibody had no effect on animals without elevated TIMP-4 (FIG. 7B).

MDA-MB-468 cells [3] = experiment: Clonogenic growth assay after irradiation; type: cell-based, human; settings: elevated TIMP-4 conditions, N=3
Protocol: as §1

MDA-MB-468 cell = experiment: Modified Boyden chamber invasion, MDA-MB-468; type: cell-based, human; settings: 2nM TIMP-4 for 24 hours, N=6
Protocol: as §1

[4] = tested on: CD63 negative SK-Br-3 cells; experiment: Modified Boyden chamber invasion, SK-Br-3; type: cell-based, human; settings: 2nM TIMP-4 for 24 hours, N=6
Protocol: as §1

CD63 = biological target: T1, CD63; experiment: Immunoprecipitation and immunofluorescence staining for CD63 binding; settings: MDA-MB-468, 2nM TIMP-4
Description: Human breast cancer cell-lines expressing the tetraspanin CD63 (Chirco et al. (2006) Cancer Met. Rev., 25:99-113), as determined by FACS analysis, include MDA-MB-468.

| binding to CD63 (CD63) | Molecule | activation of AKT (pAkt Ser473) (AKT) | growth rate of MDA-MB-468 [1] | tumor size and growth rate with TIMP-4 pellets versus placebo pellets (MDA-MB-468 cells [2]) | survival of MDA-MB-468 cells after irradiation (MDA-MB-468 cells [3]) | invasiveness of MDA-MB-468 (MDA-MB-468 cell) | invasiveness of SK-Br-3 [4] |
| --- | --- | --- | --- | --- | --- | --- | --- |
| – | TIMP-1: member of the mammalian TIMP family, secreted circulating protein | can activate AKT | – | – | – | – | – |
| functional binding partner | B1 | can activate AKT; also recorded: sufficient to activate the PI3K/AKT pathway | increased growth rate; also recorded: relatively faster growth rate | Differences in tumor size and growth rate | increased survival | increased the invasiveness | did not increase the invasiveness |
